From patent US20230227577A1 (MYTHIC THERAPEUTICS, published 2023)

What was measured:
[1] = molecular target: T1, DLL3 target antigen coated on Octet SA tips (binning experiment) (Homo sapiens (Human), UniProt Q9NYJ7 27-492, Probably biotinylated for capture on streptavidin (SA) tips. The site is not stated.); test: Octet binning on DLL3-coated SA tips; competitor: 3HCE56
T1 sequence: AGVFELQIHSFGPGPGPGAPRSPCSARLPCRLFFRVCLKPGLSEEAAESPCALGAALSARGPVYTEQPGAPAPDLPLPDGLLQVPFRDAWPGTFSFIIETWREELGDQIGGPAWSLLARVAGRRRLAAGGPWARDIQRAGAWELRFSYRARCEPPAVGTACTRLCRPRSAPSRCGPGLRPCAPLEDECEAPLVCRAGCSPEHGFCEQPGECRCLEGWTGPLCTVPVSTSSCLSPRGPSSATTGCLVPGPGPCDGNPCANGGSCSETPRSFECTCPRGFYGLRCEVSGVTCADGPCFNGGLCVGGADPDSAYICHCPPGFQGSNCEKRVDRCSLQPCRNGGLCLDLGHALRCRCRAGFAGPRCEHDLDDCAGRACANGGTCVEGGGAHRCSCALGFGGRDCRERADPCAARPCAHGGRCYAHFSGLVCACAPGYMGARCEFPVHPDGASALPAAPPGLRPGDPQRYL
Method: (§1) Antibody binning experiments were carried out for 5 anti-DLL3 VHHs and an anti-human DLL3 BiTE (SEQ ID NO: 756). The target antigen was coated on a series of Octet SA tips. Each series of tips was first soaked in a periplasmic extract containing one specific VHH. After the response signals reached saturation, the tips were transferred to a mix of PEs containing again the first VHH (at the same concentration) plus a different VHH (termed secondary VHH) for each tip of the series. Secondary VHH that still bind the target antigen in the presence of the first VHH will show an increased response, as compared to the binding response of the first VHH alone. This was repeated for each VHH as primary VHH until all VHH were tested against each other in both directions (as primary and as secondary binder). From the response data, the bins were deduced for each VHH. 2HCE117 and 3HCE4 show competition with the human DLL3 BiTEs, whereas 3HCE56 and 3HCE87 show a partial competition.

[2] = molecular target: T1, DLL3 target antigen coated on Octet SA …; test: Octet binning on DLL3-coated SA tips; competitor: 3HCE87
Method: as §1

[3] = molecular target: T1, DLL3 target antigen coated on Octet SA …; test: Octet binning on DLL3-coated SA tips; competitor: 2HCE27
Method: as §1

[4] = molecular target: T1, DLL3 target antigen coated on Octet SA …; test: Octet binning on DLL3-coated SA tips; competitor: DLL3 BiTEs
Method: as §1

[5] = molecular target: T2, mouse DLL3 protein (mouse, UniProt O88516 33-490, limits assumed); test: Octet (DLL3 on AR2G tips), ELISA and FACS; values only in FIG. 3
T2 construct: also called murine DLL3
T2 sequence (looked up): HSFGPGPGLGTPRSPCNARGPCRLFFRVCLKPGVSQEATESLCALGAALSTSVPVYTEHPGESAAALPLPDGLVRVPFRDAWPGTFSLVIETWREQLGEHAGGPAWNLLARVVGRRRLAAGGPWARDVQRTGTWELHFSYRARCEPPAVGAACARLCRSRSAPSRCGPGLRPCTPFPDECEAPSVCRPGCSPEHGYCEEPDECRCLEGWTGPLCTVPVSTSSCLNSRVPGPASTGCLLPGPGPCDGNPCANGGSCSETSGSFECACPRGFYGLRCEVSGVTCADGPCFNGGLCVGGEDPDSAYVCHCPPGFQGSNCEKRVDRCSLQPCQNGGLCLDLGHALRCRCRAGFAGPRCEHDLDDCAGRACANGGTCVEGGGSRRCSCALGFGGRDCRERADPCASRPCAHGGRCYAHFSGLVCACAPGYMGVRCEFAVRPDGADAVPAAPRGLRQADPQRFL

[6] = molecular target: T3, recombinant human DLL3 protein (human, UniProt Q9NYJ7 27-492, limits assumed); test: Fortebio Octet Red, DLL3 immobilised on tips, dilution series of the VHH, 1:1 binding model; kon error 9.86E+02; Full R2 0.9955
T3 construct: also called rhu DLL3; human biotinylated DLL3
T3 sequence (looked up): T1 sequence
Method: (§2) Additional experiments were carried out to further characterize the binding properties of the anti-DLL3 constructs. Binding properties tested include dissociation constant (KD), off-rate (koff), binding to DLL3 protein by ELISA and binding to CHO cells expressing human, cyno or mouse DLL3. To obtain off-rate (koff), human biotinylated DLL3 was immobilized on Octet SA tips, and cynomolgus or mouse DLL3 was immobilized on Octet AR2G tips. For each DLL3 protein, the binding to a dilution series of each anti-DLL3 construct was measured using Fortebio Octet Red. The dissociation constant (KD), off-rate (koff) and other kinetic parameters for each anti-DLL3 construct were calculated using a 1:1 binding model. In addition, binding of these anti-DLL3 constructs to CHO cells expressing human, cyno or mouse DLL3 protein was analyzed using flow cytometry (FACS).

[7] = molecular target: T4, DLL3 (ELISA DLL3); test: ELISA, ratio of the signal on DLL3 to the signal on the control
T4 construct: also called DLL3 protein in ELISA
T4 chain: T1 sequence

[8] = molecular target: T3, recombinant human DLL3 protein; test: Fortebio Octet Red, DLL3 immobilised on tips, dilution series of the VHH, 1:1 binding model; KD error 2.22E-11; Full R2 0.9955
Method: as §2

[9] = molecular target: T5, mouse DLL3 on CHO cells (mouse, UniProt O88516 33-592); test: flow cytometry (FACS) on CHO cells expressing mouse DLL3
T5 construct: whole, on cells; also called CHO cells expressing mouse DLL3
T5 sequence (looked up): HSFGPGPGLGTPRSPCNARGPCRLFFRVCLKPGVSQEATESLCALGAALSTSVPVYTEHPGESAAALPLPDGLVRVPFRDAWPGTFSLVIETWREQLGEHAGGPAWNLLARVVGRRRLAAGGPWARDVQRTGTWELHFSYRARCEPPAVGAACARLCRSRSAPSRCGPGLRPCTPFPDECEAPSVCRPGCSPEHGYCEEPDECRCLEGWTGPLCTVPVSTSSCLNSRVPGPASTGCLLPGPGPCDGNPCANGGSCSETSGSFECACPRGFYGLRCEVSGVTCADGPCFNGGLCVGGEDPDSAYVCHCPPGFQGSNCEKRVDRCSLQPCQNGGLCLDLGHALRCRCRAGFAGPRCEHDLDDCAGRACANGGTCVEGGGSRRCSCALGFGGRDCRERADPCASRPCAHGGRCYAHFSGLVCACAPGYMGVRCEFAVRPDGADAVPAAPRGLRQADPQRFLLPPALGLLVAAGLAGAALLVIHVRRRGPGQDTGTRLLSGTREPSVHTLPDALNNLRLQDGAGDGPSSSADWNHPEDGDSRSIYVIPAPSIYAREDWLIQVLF
Method: as §2

[10] = molecular target: T3, recombinant human DLL3 protein; test: Fortebio Octet Red, DLL3 immobilised on tips, dilution series of the VHH, 1:1 binding model; koff error 2.13E-06; Full R2 0.9955
Method: as §2

[11] = molecular target: T1, DLL3 target antigen coated on Octet SA …; test: Octet binning on DLL3-coated SA tips; competitor: 2HCE117
Method: as §1

[12] = molecular target: T1, DLL3 target antigen coated on Octet SA …; test: Octet binning on DLL3-coated SA tips; competitor: 3HCE4
Method: as §1

[13] = molecular target: T3, recombinant human DLL3 protein; test: Fortebio Octet Red, DLL3 immobilised on tips, dilution series of the VHH, 1:1 binding model; KD error 1.32E-09; Full R2 0.9111
Method: as §2

[14] = molecular target: T3, recombinant human DLL3 protein; test: Fortebio Octet Red, DLL3 immobilised on tips, dilution series of the VHH, 1:1 binding model; koff error 2.95E-06; Full R2 0.9111
Method: as §2

[15] = molecular target: T3, recombinant human DLL3 protein; test: Fortebio Octet Red, DLL3 immobilised on tips, dilution series of the VHH, 1:1 binding model; kon error 7.26E+01; Full R2 0.9111
Method: as §2

[16] = molecular target: T3, recombinant human DLL3 protein; test: Fortebio Octet Red, DLL3 immobilised on tips, dilution series of the VHH, 1:1 binding model; kon error 2.27E+03; Full R2 0.9522
Method: as §2

[17] = molecular target: T3, recombinant human DLL3 protein; test: Fortebio Octet Red, DLL3 immobilised on tips, dilution series of the VHH, 1:1 binding model; KD error 7.00E-11; Full R2 0.9522
Method: as §2

[18] = molecular target: T3, recombinant human DLL3 protein; test: Fortebio Octet Red, DLL3 immobilised on tips, dilution series of the VHH, 1:1 binding model; koff error 5.76E-06; Full R2 0.9522
Method: as §2

B1: 3HCE4 anti-DLL3 VHH (VHH)
VHH: QVQLQESGGGLVQAGASLKLSCAVSGRAGSSYDMGWLRQAPGKEREFVAIITWSGNTAYKDSVKGRFIISRDNAKNTVYLEMNSLAPEDTAVYYCAAALSEKKYEYWGQGTQVTVSS
notes: In the binning assay it was used as a periplasmic extract
binning response (unit not given) [1]: 407 | binning response (unit not given) [2]: 120 | binning response (unit not given) [3]: 347 | binning response (unit not given) [4]: 9.03 | binding result [5]: binds | kon [6]: 249000 M⁻¹ s⁻¹ | DLL3 / control [7]: 65.7 | Kd [8]: 5.15 nM | binding result [9]: binds | koff [10]: 0.00128 s⁻¹ | binning response (unit not given) [11]: 3510 | binning response (unit not given) [12]: 0

B2: 2HCE117 anti-DLL3 VHH (VHH)
VHH: QVQLQESGGGLVQPGGSLRLSCAASGFTFSSYAMSWVRQAPGKGLEWVSDINSGGGSTYYADSVKGRFTISRDNAKNTLYLQMDSLKPEDTAVYYCATPFEIGSWGQGTQVTVSS
notes: as for B1
binning response (unit not given) [1]: -207 | Kd [13]: 101 nM | binning response (unit not given) [2]: -98.7 | binning response (unit not given) [3]: -73 | koff [14]: 0.0006 s⁻¹ | binning response (unit not given) [4]: -23.2 | binding result [5]: binds | DLL3 / control [7]: 29.4 | binding result [9]: binds | binning response (unit not given) [11]: 0 | kon [15]: 5960 M⁻¹ s⁻¹ | binning response (unit not given) [12]: -90.1

B3: anti-human DLL3 BiTE (bispecific antibody)
chain: QVQLQESGPGLVKPSETLSLTCTVSGGSISSYYWSWIRQPPGKGLEWIGYVYYSGTTNYNPSLKSRVTISVDTSKNQFSLKLSSVTAADTAVYYCASIAVTGFYFDYWGQGTLVTVSSGGGGSGGGGSGGGGSEIVLTQSPGTLSLSPGERVTLSCRASQRVNNNYLAWYQQRPGQAPRLLIYGASSRATGIPDRFSGSGSGTDFTLTISRLEPEDFAVYYCQQYDRSPLTFGGGTKLEIK
notes: also called DLL3 BiTEs
binning response (unit not given) [1]: 1500 | binning response (unit not given) [2]: 125 | binning response (unit not given) [3]: 82.5 | binning response (unit not given) [4]: 0 | binning response (unit not given) [11]: 1280 | binning response (unit not given) [12]: 121

B4: 3HCE87 anti-DLL3 VHH (VHH)
VHH: QVQLQESGGGLVQAGGSLRLSCAASGFIFDDYIIGWFRQAPGKEREFVAAISWSGSATAYADSVKGRFTISRDNAKNTLYLQMNTLKPEDTAVYYCAASSRGPYNSGSSYDYWGQGTQVTVSS
notes: as for B1
binning response (unit not given) [1]: 204 | binning response (unit not given) [2]: 0 | binning response (unit not given) [3]: -48.2 | binning response (unit not given) [4]: 68.3 | kon [16]: 192000 M⁻¹ s⁻¹ | binding result [5]: binds | DLL3 / control [7]: 18.8 | binding result [9]: binds | binning response (unit not given) [11]: 1210 | binning response (unit not given) [12]: -54.4 | Kd [17]: 5.35 nM | koff [18]: 0.00103 s⁻¹
